Patent US11634477 (dated 2023)

Experiments:
SARS-CoV-2 RBD = SARS-CoV-2 RBD (SARS-CoV-2, UniProt P0DTC2); experiment: ELISA
SARS-CoV RBD = SARS-CoV RBD (SARS-CoV, UniProt P59594); experiment: ELISA

Binder	EC50 (SARS-CoV-2 RBD)	EC50 (SARS-CoV RBD)
C114 (antibody, V domains shown) VH: QVQLVESGGGLIQPGGSLKLSCVVSGFTVSKNYISWVRQAPGKGLEWVSVIFAGGSTFYADSVKGRFAISRDNSNNTLFLQMNSLRVEDTAIYYCARGDGELFFDQWGQGTLVTVSS VL: QSVLTQPPSVSGAPGQRVTISCTGTSSNIGAGYDVHWYQQLPGRAPKVLISGNNIRPSEVPDRFSGSRSGTSASLAITSLQPEDEAQYYCQSYDSSLYAVFGGGTKLTVL	9.51 ng/mL	> 1000 ng/mL
C156 (antibody, V domains shown) VH: QVQLVESGGGVVQPGRSLRLSCAASGFTFSNYGMHWVRQAPGKGLEWVAVISYDGNNKYYADSVKGRFTISRDNSKNTLYLQMNSLRAEDTAVYYCAKDPFPLAVAGTGYFDYWGQGTLVTVSS VL: SYELTQPPSVSVAPGQTARISCGGNNIGSKNVHWYQQKPGQAPVLVVYDDSDRPSGIPERFSGSNSGNTATLTISRVEAGDEADYYCQVWDSSSDPWVFGGGTKLTVL	3.32 ng/mL	> 1000 ng/mL
C132 (antibody, V domains shown) VH: QVQLQESGPGLVKPSGTLSLTCAVSGGSISSNNWWSCVRQPPGKGLEWIGEIYHSGSTNYNPSLKSRVTISVDKSKNQFSLKLSSVTAADTAVYYCARGGDTAMGPEYFDYWGQGTLVTVSS VL: QSALTQPASVSGSPGQSITISCTGTSSDVGGYNYVSWYQQHPGKAPKLMIYDVSNRPSGVSNRFSGSKSGNTASLTISGLQAEDEADYYCSSYTSSSTLLFGGGTKLTVL	2.92 ng/mL	> 1000 ng/mL
C108 (antibody, V domains shown) VH: QVQLQESGPGLVKPSGTLSLTCAVSGGSISSTNWWSWVRQPPGKGLEWIGEIYHTGSTNYNPSLKSRVTISVDKSKNQFSLKLSSVTAADTAVYYCVRDGGRPGDAFDIWGQGTMVTVSS VL: QSALTQPASVSGSPGQSITISCTGTSSDVGGYNYVSWYQQHPGKAPKLMIYDVSNRPSGVSNRFSGSKSGNTASLTISGLQAEDEADYYCNSYTSSSTRVFGTGTKVTVL	5.32 ng/mL	> 1000 ng/mL
C145 (antibody, V domains shown) VH: EVQLVESGGGLIQPGGSLRLSCAASGFSVSSNYMSWVRQAPGKGLEWVSVIYSGGSTYYADSVKGRFTISRDNSKNTLYLQMNSLRAEDTAVYYCAREGEVEGYYDFWSGYSRDRYYFDYWGQGTLVTVSS VL: QSALTQPASVSGSPGQSITISCTGTSSDVGGYNYVSWYQQHPGKAPKLMIYDVSNRPSGVSNRFSGSKSGNTASLTISGLQAEDEADYYCSSYTSSTTRVFGTGTRVTVL	3.86 ng/mL	> 1000 ng/mL
C118 (antibody, V domains shown) VH: QVQLVESGGGVVQPGRSLRLSCAASGFTFSNYAMHWVRQAPGKGLEWVAVISYDGSNKYYADSVKGRFTISRDNSKNTLYLQMNSLRAEDTAIYYCASGYTGYDYFVRGDYYGLDVWGQGTTVTVSS VL: QPVLTQSPSASASLGASVKLTCTLSSGHSSYAIAWHQQQPEKGPRYLMKLNTDGSHSKGDGIPDRFSGSSSGAERYLTISSLQSEDEADYYCQTWGTGILVFGGGTKLTVL	3.45 ng/mL	3.82 ng/mL
C207 (antibody, V domains shown) VH: not shown VL: EIVLTQSPATLSLSPGERATLSCRASQSVSSYLAWYQQKPGQAPRLLIYDASNRATGIPARFSGSGSGTDFTLTISSLEPEDFAVYYCQQRSNWPRGFGQGTKVEIK	1.87 ng/mL	> 1000 ng/mL
C128 (antibody, V domains shown) VH: EVQLLESGGGLVQPGGSLRLSCAASGFTFSTYAMSWVRQAPGKGLEWVSTITGSGRDTYYADSVKGRFTISRDNSKNTLFLQLNSLRAEDAAVYSCANHPLASGDDYYHYYMDVWGKGTTVTVSS VL: EIVLTQSPGTLSLSPGERATLSCRASQSVNSRQLAWYQQKPGQAPRLLIYGASSRATGIPERFSGSGSGTDFTLTISRLESEDFAVYHCQQYGSSRALTFGGGTKVEIK	1.95 ng/mL	> 1000 ng/mL
C139 (antibody, V domains shown) VH: EVQLVESGGGVVQPGRSLRLSCAASGFTFSSYAMHWVRQAPGKGLEWVAVISYDGSNKYSADSVKGRFTISRDNSKNTLYLQMNSLRAEDTAVYYCAKGGAYSYYYYMDVWGKGTTVTVSS VL: not shown	1.89 ng/mL	> 1000 ng/mL
C002 (antibody, V domains shown) VH: EVQLVESGGGVVQPGRSLRLSCAASGFTFSIYGMHWVRQAPGKGLEWVAVISYDGSNKYYADSVKGRFTISRDNSKNTLYLQMNSLRAEDTAVYYCAKEGRPSDIVVVVAFDYWGQGTLVTVSS VL: not shown	3.14 ng/mL	> 1000 ng/mL
C027 (antibody, V domains shown) VH: EVQLVESGGGVVQPGRSLRLSCAASGFTFSSYGMHWVRQAPGKGLEWVAVISYDGSNKYYADSVKGRFTISRDNSKNTLYLQMNSLRAEDTAVYYCAKASGIYCSGGDCYSYYFDYWGQGTLVTVSS VL: not shown	2.65 ng/mL	696 ng/mL
C126 (antibody, V domains shown) VH: QVQLQESGPGLVKPSETLSLSCAVSGGSIGSYFWSWIRQPPGKGLEWIGYLHYSGSTNYNPSLKSRVTISVDTSKNQFSLKLSSVTAADTAVYYCARLQWLRGAFDIWGQGTMVTVSS VL: NFMLTQPHSVSESPGKTVTISCTGSSGSIASNYVQWYQQRPGSAPTTVINEDNQRPSGVPDRFSGSIDSSSNSASLTISGLKTEDEADYYCQSYDSSNLVFGGGTKLTVL	4.78 ng/mL	> 1000 ng/mL
C113 (antibody, V domains shown) VH: QVQLVESGGGVVQPGRSLRLSCAASGFTFSNFGMHWVRQAPGKGLEWVAVIWYDGSNKYYADSVKGRFTISRDNSKNTLYLQMNSLRAEDTAVYYCARGVNPDDILTGVDAFDIWGQGTMVTVSS VL: DIQMTQSPSTLSASVGDRVTITCRASQSMSSWLAWYQQKPGNAPKLLIYKASSLESGVPSRFSGSGSGTEFTLTISSLQPDDFATYYCQQHNSSPLTFGGGTKVEIK	6.93 ng/mL	> 1000 ng/mL
C133 (antibody, V domains shown) VH: QVQLVESGGGVVQPGRSLRLSCAASGFTFSSYAMHWVRQAPGKGLEWVAVILYDGSNKYYADSVKGRFTISRDNSKNTLYLQMNSLRAEDTAVYYCARDSDVDTSMVTWFDYWGQGTLVTVSS VL: not shown	1.98 ng/mL	> 1000 ng/mL
C165 (antibody, V domains shown) VH: QVQLVQSGAEVKKPGSSVKVSCKASGGTFSSYAINWVRQAPGQGLEWMGRIIPIVGIANYAQKFQGRVTITADKSSSTAYMELSSLRSEDTAVYYCARDLLDPQLDDAFDIWGQGTMVTVSS VL: not shown	4.25 ng/mL	> 1000 ng/mL
C029 (antibody, V domains shown) VH: QVQLQESGPGLVKPSQTLSLTCTVSGGSISSGGYYWSWIRQHPGKGLEWIGYIYYSGSTYYNPSLKSRVTISVDTSKNQFSLKLSSVTAADTAVYYCARTMYYYDSSGSFDYWGQGTLVTVSS VL: not shown	4.13 ng/mL	> 1000 ng/mL
C131 (antibody, V domains shown) VH: QVQLVQSGSEVKKPGSSVKVSCKASGGTFSSYAFSWVRQAPGQGLEWMGRIIPILALANYAQKFQGRVTITADKSTSTAYMELSSLRSEDTAVYYCARVNQAVTTPFSMDVWGQGTTVTVSS VL: not shown	1.67 ng/mL	> 1000 ng/mL
C115 (antibody, V domains shown) VH: QVQLVESGGGLIKPGRSLRLSCTASGFTFGDYAMTWFRQAPGKGLEWVGFIRSKAYGGTTGYAASVKYRFTISRDDSKSIAYLQMDSLKTEDTAVYYCTRWDGWSQHDYWGQGTLVTVSS VL: DIVMTQSPLSLSVTPGEPASISCRSSQSLLHSNGNNYFDWYLQKPGQSPQLLIYLGSNRASGVPDRFSGSGSGTDFTLKISRVEAEDVGVYYCMQVLQIPYTFGQGTKLEIK	3.4 ng/mL	> 1000 ng/mL
C134 (antibody, V domains shown) VH: EVQLLESGGGLVQPGGSLRLSCAASGFTFSNYAMSWVRQAPGKGLEWVSAISGSDGSTYYAGSVKGRFTISRDNSKNTLYLQMNSLRAEDTAVYYCAKDPLITGPTYQYFHYWGQGTLVTVSS VL: SYELTQPPSVSVAPGKTARITCGGNNIGSKSVHWYQQKPGQAPVLVIYYDSDRPSGIPERFSGSNSGNTATLTISRVEAGDEAEYHCQVWDSSSDRPGVVFGGGTKLTVL	1.57 ng/mL	> 1000 ng/mL
C003 (antibody, V domains shown) VH: EVQLVESGGGLIQPGGSLRLSCAASGFTVSSNYMSWVRQAPGKGLEWVSVIYSGGSTYYADSVKGRFTISRDNSKNTLYLQMNSLRAGDTAVYYCARDYGDFYFDYWGQGTLVTVSS VL: not shown	6.37 ng/mL	> 1000 ng/mL
C120 (antibody, V domains shown) VH: EVQLVESGGGLIQPGGSLRLSCAASGFTVSSNYMTWVRQAPGKGLEWVSLIYPGGSTYYADSVKGRFTISRDNSKNTLYLQMNSLRAEDTAVYYCAREGMGMAAAGTWGQGTLVTVSS VL: AIRMTQSPSSLSASVGDTVTITCQASQDISKYLNWYQQKPGKAPKLLIYDASNLETGVPSRFSGSGSGTDFTFTISSLQPEDIATYYCQQYDNLPQTFGGGTKVEIK	1.41 ng/mL	> 1000 ng/mL
C214 (antibody, V domains shown) VH: QVQLVESGGGVVQPGRSLRLSCAASGFTFSSYGMHWVRQAPGKGLEWVAAIWYDGSNKHYADSVKGRFTISRDNSKNTLYLQMNSLRAEDTAVYYCARDVGRVTTWFDPWGQGTLVTVSS VL: not shown	5.75 ng/mL	> 1000 ng/mL
C124 (antibody, V domains shown) VH: EVQLVESGGGLVQPGGSLRLSCAASGFTFSGYSMNWVRQAPGKGPEWVSYISRSSSTIYYADSVKGRFTISRDNAKNSLYLQMNSLRDEDTAVYYCAREGARVGATYDTYYFDYWGQGTLVTVSS VL: EIVLTQSPATLSLSPGERATLSCRASQSFSSYLAWYQQKPGQAPRLLIYDASNRATGIPARFSGSGSGTDFTLTISSLEPEDFAVYYCQQRNNWPPEWTFGQGTKVEIK	2.23 ng/mL	> 1000 ng/mL
C105 (antibody, V domains shown) VH: QVQLVESGGGLIQPGGSLRLSCAASGFTVSSNYMSWVRQAPGKGLEWVSVIYSGGSTYYADSVKGRFTISRDNSKNTLYLQMNSLRAEDTAVYYCARGEGWELPYDYWGQGTLVTVSS VL: QSALTQPPSASGSPGQSVTISCTGTSSDVGGYKYVSWYQQHPGKAPKLMIYEVSKRPSGVPDRFSGSKSGNTASLTVSGLQAEDEADYYCSSYEGSNNFVVFGGGTKLTVL	5.2 ng/mL	> 1000 ng/mL
